Article PMC9534319 (2022)

Target: h219 (VH9/VK2)
Experiment: BLI

B1: his tagged human LAIR1 recombinant protein (receptor)
chain: QEEDLPRPSISAEPGTVIPLGSHVTFVCRGPVGVQTFRLERDSRSTYNDTEDVSQASPSESEARFRIDSVREGNAGLYRCIYYKPPKWSEQSDYLELLVKESSGGPDSPDTEPGSSAGPTQRPSDNSHNEHAPASQGLKAEHLY
Kd: 660 pM
